Assay [1] addresses T1, human matriptase-2 ECD protein his tag (human, UniProt Q8IU80 78-811).
T1 construct: also called human MTP-2 ECD; huMTP-2
T1 sequence: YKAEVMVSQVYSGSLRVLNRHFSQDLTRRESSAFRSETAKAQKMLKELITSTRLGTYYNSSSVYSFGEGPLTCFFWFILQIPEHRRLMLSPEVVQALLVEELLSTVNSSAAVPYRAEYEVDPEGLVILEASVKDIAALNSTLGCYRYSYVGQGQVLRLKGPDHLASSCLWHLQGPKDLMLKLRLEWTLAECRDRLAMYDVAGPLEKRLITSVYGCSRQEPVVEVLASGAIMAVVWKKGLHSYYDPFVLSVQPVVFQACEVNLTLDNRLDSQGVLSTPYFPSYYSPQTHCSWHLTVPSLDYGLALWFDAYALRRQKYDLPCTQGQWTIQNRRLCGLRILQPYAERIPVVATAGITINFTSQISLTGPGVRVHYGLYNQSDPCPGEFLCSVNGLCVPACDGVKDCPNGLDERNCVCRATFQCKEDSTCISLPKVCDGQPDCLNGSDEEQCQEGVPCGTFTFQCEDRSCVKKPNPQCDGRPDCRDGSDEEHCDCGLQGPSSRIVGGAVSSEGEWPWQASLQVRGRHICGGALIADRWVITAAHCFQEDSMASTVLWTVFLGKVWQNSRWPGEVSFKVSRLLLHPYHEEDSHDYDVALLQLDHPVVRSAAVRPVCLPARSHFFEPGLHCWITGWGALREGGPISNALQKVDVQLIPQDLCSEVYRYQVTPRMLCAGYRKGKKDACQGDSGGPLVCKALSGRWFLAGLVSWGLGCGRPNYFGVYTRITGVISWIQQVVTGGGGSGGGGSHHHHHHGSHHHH
Briefly: HTRF competition with 647-labelled aprotinin for human MTP-2 protein. An excerpt: Aprotinin is a pan serine protease inhibitor and is known to occupy the active site of serine proteases. A HTRF competition assay against labelled aprotinin confirmed that NORI-003, NORI-006, NORI-008 and NORI-011 were binding at or near this same site and competed with aprotinin for binding to human MTP-2 protein. […] This was confirmed by their lack of competition of aprotinin against moMTP-2 while IC50 values in the enzymatic assay were similar to those of NORI-011. […] FIG. 8. Table L.
Antibodies were titrated into HTRF buffer (DPBS (Gibco—14190144) with 0.1% BSA (Sigma—A7906) and potassium fluoride 0.53M (Sigma—60240-250 G)) at 4× conc with a starting concentration of 200 nM. 5 μL/w of antibodies were added to 384-well white plates (Greiner—784904). Purified proteins of huMTP-2 and moMTP-2 were diluted into HTRF buffer (huMTP-2=40 nM and moMTP-2=240 nM) 4× final conc and plate 5 μL/w. Anti-MTP-2 mAb (NORI-037) in molgG1 backbone was then diluted to 1.2 nM 4× final conc with DELFIA Eu-N1 Rabbit Anti-Mouse-IgG antibody (AD0207) at a 1:1000 dilution 4× final conc in HTRF buffer. Finally, dilute 647-labelled Aprotinin (Sigma—A3428) in HTRF buffer to 20 nM 4× final conc and plate 5 μL/w. Incubate plates for 3 hours or more at RT in the dark. Read plate using HTRF 100 flashes protocol on the EnVision plate reader at 1H 2H and 3H. (Ex: 340 nm Em1: 620 nm Em2: 665 nm).

In assay [2] the target is T2, mouse matriptase-2 ECD protein his tag (mouse, UniProt Q9DBI0 80-811).
T2 sequence: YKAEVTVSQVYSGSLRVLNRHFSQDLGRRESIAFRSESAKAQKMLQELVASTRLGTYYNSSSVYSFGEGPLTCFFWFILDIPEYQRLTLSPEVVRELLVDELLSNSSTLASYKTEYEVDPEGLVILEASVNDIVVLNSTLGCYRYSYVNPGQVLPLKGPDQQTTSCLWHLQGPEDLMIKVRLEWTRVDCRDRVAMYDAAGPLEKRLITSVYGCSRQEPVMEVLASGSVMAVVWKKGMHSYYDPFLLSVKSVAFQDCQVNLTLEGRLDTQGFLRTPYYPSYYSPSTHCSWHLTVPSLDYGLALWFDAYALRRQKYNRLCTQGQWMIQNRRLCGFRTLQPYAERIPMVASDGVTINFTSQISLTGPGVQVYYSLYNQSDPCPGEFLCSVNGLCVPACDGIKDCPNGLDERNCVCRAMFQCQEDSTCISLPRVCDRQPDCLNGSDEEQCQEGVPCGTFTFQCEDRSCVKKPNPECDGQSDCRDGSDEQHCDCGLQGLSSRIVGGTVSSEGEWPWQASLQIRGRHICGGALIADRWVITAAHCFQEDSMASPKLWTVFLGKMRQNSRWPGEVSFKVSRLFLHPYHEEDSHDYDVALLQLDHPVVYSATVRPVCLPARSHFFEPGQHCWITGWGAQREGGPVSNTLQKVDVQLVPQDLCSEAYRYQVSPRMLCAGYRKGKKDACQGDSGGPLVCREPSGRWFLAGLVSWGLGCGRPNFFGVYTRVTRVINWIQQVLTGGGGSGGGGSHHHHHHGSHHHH
In words: cell-based or functional assay.

Assay [3] concerns the target T1, human matriptase-2 ECD protein his tag. Briefly: cell-based or functional assay.
In assay [4] the target is T2, mouse matriptase-2 ECD protein his tag. Briefly: SPR (Biacore 8K), huIgG4PE captured on anti-human Fc, MTP-2 ECD as analyte, 1:1 fit. Here is the method:
(§1) Off-rate screening was performed by surface plasmon resonance (SPR), using a Biacore 8K system (GE Healthcare). Anti-human Fc mix (˜1000 RU) were immobilised in both active and reference channels in HBS-P+ buffer (GE BR100671) pH 7.4. Anti-MTP-2 hulgG4PE antibodies were then captured for 60 sec at 10 μl/min at 1 μg/ml concentration (approximatively 35 and 50 RU were captured) only on the active channel. MTP-2 ECD protein analytes were then injected (at 100, 25, 6.25, 1.56 and 0 nM concentrations) for 120 sec (association time) at 30 μl/min and dissociation monitored for 600 sec. Multiple cycle kinetics mode was used with all 8 channels being used. Reference and background were subtracted from the sensorgrams for each antibody and data was fitted using a 1:1 interaction model in the Biacore evaluation software. Rmax, ka, kd globally fitted, RI=0.
A general note: Surface plasmon resonance follows binding to a sensor surface in real time, without labels.

In assay [5] the target is T1, human matriptase-2 ECD protein his tag. The assay is described as above. On the procedure:
as §1

B1: NORI-006 (antibody, human IgG4 S228P, kappa, V domains shown)
VH: EVQLVESGGGLIKPGRSLRLSCTGSGFTFGDFGLSWFRQAPGKGLEWISFIRSKPYGGTTDYAASVKGRFTISRDDSKNVAYLQMNSLKTEDTAVYYCARNEILTGYYIFDYWGQGTLVTVSS
VL: DIQMTQSPSSLSASLGDRVTITCQASQDINNYLNWYQVQPGKAPKLLIFDASILETGVPSRFSGSGSGTDFSFTISSLQPEDIATYYCQQYDNLPLTFGGGTKVDFKR
notes: human IgG4PE, kappa
For the molecule B1, the IC50 (usually the point on the concentration scale where inhibition reaches its midpoint) in assay [1] was found to be 13.9 nM. Besides, in assay [2], the “Inhibition enzymatic activity mouse MTP2 protein (IC50)” value turned out to be 27.6 nM. Also, in assay [3], the “Inhibition enzymatic activity human MTP2 protein (IC50)” value came to 1.26 nM.

B2: NORI-003 (antibody, human IgG4 S228P, kappa, V domains shown)
VH: EVQLVESGGGLVKPGRSLRLSCTGSGFTFGDFGMSWFRQAPGKGLEWVGFIRSKPYGGTTDYAPSVRGRFSISRDDSKGIVYLQMNSLRTEDTAVYYCSRNEILTGYYIFDYWGQGTLVTVSS
VL: DIQMTQSPSSLSASLGDRVTITCQASHDITNYLIWYQQKPGKAPRLLIFDASILETGVPSRFSGSGSGTDFTFTISSLQPEDFATYYCQQYYNLPLTFGGGTKVDIKR
notes: human IgG4PE, kappa; NORI-002 with the free cysteine of the VH domain mutated (printed as 'C49C')
Take B2: in assay [1], the IC50 was determined as 7.28 nM. The “Inhibition enzymatic activity mouse MTP2 protein (IC50)” value in assay [2] came to 19 nM. In assay [3], the “Inhibition enzymatic activity human MTP2 protein (IC50)” value turned out to be 1.6 nM.

B3: NORI-011 (antibody, human IgG4 S228P, lambda)
heavy: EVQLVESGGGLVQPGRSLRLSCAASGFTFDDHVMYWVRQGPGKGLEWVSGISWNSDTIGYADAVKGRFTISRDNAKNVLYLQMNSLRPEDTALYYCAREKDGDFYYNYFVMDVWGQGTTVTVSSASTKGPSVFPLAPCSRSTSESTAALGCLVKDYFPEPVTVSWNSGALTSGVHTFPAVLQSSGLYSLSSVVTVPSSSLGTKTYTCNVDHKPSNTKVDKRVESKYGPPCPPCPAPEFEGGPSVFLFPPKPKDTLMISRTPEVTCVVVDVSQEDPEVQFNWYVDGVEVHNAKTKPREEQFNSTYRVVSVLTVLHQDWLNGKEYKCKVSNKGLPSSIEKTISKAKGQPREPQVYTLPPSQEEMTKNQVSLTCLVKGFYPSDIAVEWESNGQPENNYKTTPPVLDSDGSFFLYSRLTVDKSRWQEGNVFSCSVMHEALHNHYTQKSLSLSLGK
light: QSALTQPPSASGSPGQSVTISCTGTSSDVGFYNFVSWYQQHPDKAPKVMIYEVSKRPSGVPDRFSGSKSGNTASLTVSGLQAEDEADYYCSSYAGSNKVVFGGGTKLTVLGQPKAAPSVTLFPPSSEELQANKATLVCLISDFYPGAVTVAWKADSSPVKAGVETTTPSKQSNNKYAASSYLSLTPEQWKSHRSYSCQVTHEGSTVEKTVAPTECS
notes: human IgG4PE, lambda; NORI-010 with a P124S mutation in the VH domain
B3: the half-inhibitory concentration (IC50) in assay [1] was determined as 17 nM. Besides, the “Inhibition enzymatic activity mouse MTP2 protein (IC50)” value in assay [2] was 9.88 nM. Besides, in assay [3], the “Inhibition enzymatic activity human MTP2 protein (IC50)” value was determined as 11.4 nM.

B4: NORI-008 (antibody, human IgG4 S228P, kappa, V domains shown)
VH: QVQLQESGPGLVKPSETLSLTCSVSGGSVSSGRYYWTWIRQPPGKGLEWIGYISNSGNTNYNPSLKSRVTISLDTSKKQFSLSLSAVTAADTAVYYCARGFIYDYWFDPWGQGSLVTVSS
VL: DSQMTQSPSSLSASVGDRVTITCQASQDIDNYLNWYQQRPGKAPKLLIYDASKLETGVPSRFSGSGSGTDFTFTISSLQPEDFATYYCQQYGNLPITFGQGTRLDIKR
notes: human IgG4PE, kappa, in the in vitro assays; a mouse IgG1 format was used in one in vivo study only; also called NORI-008 hulgG4PE; NORI-008 IgG
For the molecule B4, in assay [4], the “Binding Late top conc” value was determined as 39.2, the Kd (commonly a measure of binding affinity in units of concentration) worked out at 0.129 nM, the Stoichiometry turned out to be 0.86 and the koff (usually the rate constant with which the complex falls apart) turned out to be 3.05e-05 s⁻¹. Moreover, the on-rate (kon) (commonly a measure of how fast the partners come together) in assay [4] was found to be 237000 M⁻¹ s⁻¹. Also, in assay [5], the “Binding Late top conc” value is 35.8; the affinity, expressed as Kd, was 0.0129 nM; the Stoichiometry stood at 0.72; the off-rate constant (koff) was determined as 1.47e-05 s⁻¹. Also, in assay [5], the kon is 1.14e+06 M⁻¹ s⁻¹. Also, the half-maximal inhibitory concentration (IC50) in assay [1] came to 0.256 nM. In assay [2], the “Inhibition enzymatic activity mouse MTP2 protein (IC50)” value stood at 0.757 nM. The “Inhibition enzymatic activity human MTP2 protein (IC50)” value in assay [3] was determined as 0.446 nM.

B5: NORI-013 (antibody, human IgG4 S228P, lambda, V domains shown)
VH: EVQLVESGGGLIQAGRSLRLSCAASGFTFDEHVIYWVRQIPGKGLEWISSISWKSDIIAYADSVKGRFTISRDNAKNALYLQMNSLRAEDTALYYCAREKDGDFYYYYFAMDVWGQGTTVTVSS
VL: QSALTQPPSASGSPGQSVTLSCTGTSSDVGYYNYVSWYLQHPGKAPKLMIYEVSKRPSGVPDRFSGSKSANTASLTVSGLQAEDEADYYCSSYAGSNKVVFGGGTKVTVLG
notes: human IgG4PE, lambda
In the case of B5, in assay [4], the “Binding Late top conc” value is 7.5, the Stoichiometry was 1.47 and the kon worked out at 10500 M⁻¹ s⁻¹. In addition, in assay [5], the “Binding Late top conc” value was determined as 14.6; the affinity, expressed as Kd, was 1.79 nM; the Stoichiometry stood at 1.05; the koff was 5.78e-05 s⁻¹. In addition, in assay [5], the kon was 32200 M⁻¹ s⁻¹.

B6: NORI-014 (antibody, human IgG4 S228P, lambda, V domains shown)
VH: EVQLVESGGGLIQAGRSLRLSCAASGFTFDEHVMYWVRQIPGKGLEWISSITWKSDIIAYADSVKGRFTISRDNAKNALYLQMNSLRAEDTALYYCAREKDGDFYYYYFAMDVWGQGTTVTVSS
VL: QSALTQPPSASGSPGQSVTLSCTGTSSDVGYYNYVSWYLQHPGKAPKLMIYEVSKRPSGVPDRFSGSKSANTASLTVSGLQAEDEADYYCSSYAGSNKVVFGGGTKVTVLG
notes: human IgG4PE, lambda
On to B6, for which, in assay [4], the “Binding Late top conc” value was 5.4, the Stoichiometry was found to be 0.93 and the kon is 12100 M⁻¹ s⁻¹. Further, in assay [5], the “Binding Late top conc” value was 10.7; the affinity, expressed as Kd, was 1.71 nM; the Stoichiometry was 0.9; the koff came to 4.6e-05 s⁻¹. The same molecule had a kon in assay [5] of 26900 M⁻¹ s⁻¹.

Source of the values: US20230025129A1 (KYMAB, published 2023).
